T1: cynomolgus CD137, cell-surface (cynomolgus, UniProt Q07011 24-255 (human entry))
T1 chain: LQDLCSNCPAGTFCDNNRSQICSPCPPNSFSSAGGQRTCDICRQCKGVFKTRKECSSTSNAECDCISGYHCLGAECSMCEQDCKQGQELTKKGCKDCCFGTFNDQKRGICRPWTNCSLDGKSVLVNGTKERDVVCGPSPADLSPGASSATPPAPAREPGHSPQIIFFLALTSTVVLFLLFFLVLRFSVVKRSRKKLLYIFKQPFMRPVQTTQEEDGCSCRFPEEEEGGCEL

T2: cCD137-mFc-Avi (cynomolgus; mouse)
T2 construct: also called cynomolgus CD137-mFc-Avi; Cyno CD137-mFc-Avi; not shown: mouse IgG2a Fc domain (mIgG2a Fc)
T2 chain: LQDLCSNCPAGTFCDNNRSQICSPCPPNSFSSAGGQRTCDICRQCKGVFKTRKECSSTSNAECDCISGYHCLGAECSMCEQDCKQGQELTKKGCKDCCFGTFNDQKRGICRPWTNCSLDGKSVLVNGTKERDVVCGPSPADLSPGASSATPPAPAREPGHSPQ


What was measured:
[1] = molecular target: T3, biotinylated hPD-L1-Avi-His (Acro Biosystems, PD1-H82E5) (human, UniProt Q9NZQ7 19-238, biotinylated); assay: SPR, mAb^2 captured on Protein A chip, antigen in flow
T3 construct: bought; also called Human PD-L1-His; not shown: Avi and His tags of the bought product
Procedure: (§1) Briefly, the anti-human CD137/PD-L1 mAb², diluted in HBS-EP buffer (GE Healthcare, BR100188) at 2 μg/ml, were injected individually on flows cell 2, 3 and 4 of a Protein A chip (GE Healthcare, 29127556) at 30 μl/min to achieve a final response of approximately 110 RU. Two different recombinant human PD-L1 antigens were used i.e. hPD-L1-His-Avi (see Example 1.3 for antigen details) and biotinylated hPD-L1-Avi-His (Acrobiosystems, PD-1-H82E5). Human and cynomolgus PD-L1-His (Acrobiosystems, PD-1-C52H4) antigens, diluted in HBS-EP buffer, were injected on flow cell 1, 2, 3 or 4 as appropriate at a concentration range of 81 nM to 0.037 nM with 3-fold dilutions for 4 min at 75 μl/min and then allowed to dissociate in buffer for 10 min. Regeneration was achieved by injecting 10 mM glycine-HCL pH1.5 (GE Healthcare, Human Antibody Capture Kit, BR00356) for 30 sec at a rate of 30 μl/min. Subtracted data (flow cell 2−flow cell 1, flow cell 3−flow cell 1, or flow cell 4−flow cell 1) were analysed using BIAevaluation 3.2 Software (GE Healthcare) to identify binding using the model 1:1 binding with mass transfer, with refractive index (RI) constant 0.

[2] = molecular target: T4, cPD-L1-His (Acro Biosystems, PD1-C52H4) (cynomolgus, UniProt Q9NZQ7 19-238 (human entry)); assay: as above
T4 construct: bought; also called Cyno PD-L1-His; Cynomolgus PD-L1-His; not shown: His tag of the bought product
Procedure: as §1

[3] = molecular target: T1, cynomolgus CD137, cell-surface; assay: cell-based or functional assay
[4] = molecular target: T2, cCD137-mFc-Avi; assay: SPR, mAb^2 captured by anti-human Fab, antigen in flow
Procedure: (§2) The binding of the anti-human CD137/PD-L1 mAb² to recombinant dimeric human and cynomolgus CD137 antigens was also measured by SPR using a Biacore T200 processing unit (GE Healthcare).
(§3) Briefly, 20 μg/ml anti-human Fab antibody (GE Healthcare, Human Fab Capture kit 28958325) was coated on flow cells 1, 2, 3 and 4 of a Biacore sensor S chip CM5 (GE Healthcare, BR100530) achieving a final response of approximately 5000 RU. […] The recombinant dimeric antigens, human CD137-mFc-Avi or cynomolgus CD137-mFc-Avi (see Example 1.1 for antigen details) diluted in HBS-EP buffer, were injected on flow cell 1, 2, 3 or 4 as appropriate at a concentration range of 81 nM to 0.037 nM with 3-fold dilutions for 4 minutes at 70 μl/min and then allowed to dissociate in buffer for 10 minutes. Regeneration was achieved by injecting 10 mM glycine pH 2.1 (GE Healthcare, Human Fab Capture kit 28958325) for 60 seconds at a rate of 30 μl/min. Data analysis was performed as described in Example 9.1.

[5] = molecular target: T5, hCD137-mFc-Avi (human; mouse, UniProt Q07011 24-186, biotin on the Avi sequence where the biotinylated form was used); assay: as above
T5 construct: also called human CD137-mFc-Avi; dimeric human CD137; not shown: mouse IgG2a Fc domain (mIgG2a Fc)
Procedure: as §2, §3

[6] = molecular target: human PD-L1, cell-surface (human, UniProt Q9NZQ7 19-290); assay: cell-based or functional assay
[7] = molecular target: human CD137, cell-surface (human, UniProt Q07011 24-255); assay: cell-based or functional assay

T3 sequence (Q9NZQ7 19-238): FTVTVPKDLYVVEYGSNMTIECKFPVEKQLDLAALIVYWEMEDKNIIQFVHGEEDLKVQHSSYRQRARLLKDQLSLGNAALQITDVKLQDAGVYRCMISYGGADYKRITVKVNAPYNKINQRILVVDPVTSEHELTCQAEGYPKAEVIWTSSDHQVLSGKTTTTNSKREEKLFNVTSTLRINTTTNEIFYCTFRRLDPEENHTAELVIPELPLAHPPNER
human PD-L1, cell-surface, sequence (Q9NZQ7 19-290): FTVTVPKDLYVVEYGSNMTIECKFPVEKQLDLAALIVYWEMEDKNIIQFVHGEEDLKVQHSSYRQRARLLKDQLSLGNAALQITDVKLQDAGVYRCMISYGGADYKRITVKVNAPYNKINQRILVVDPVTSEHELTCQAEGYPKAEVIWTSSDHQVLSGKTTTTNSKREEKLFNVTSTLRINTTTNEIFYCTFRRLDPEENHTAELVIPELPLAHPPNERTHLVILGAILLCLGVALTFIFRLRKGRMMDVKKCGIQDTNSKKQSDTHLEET
T4 sequence (Q9NZQ7 other isoform, or with tags, fused parts or gaps): as the sequence (Q9NZQ7 19-238) above, with A33T, A34S, S62N, R68Q, Q82R, F173L, T185A, T192I, H215L counted along it
T5 sequence (Q07011 24-186): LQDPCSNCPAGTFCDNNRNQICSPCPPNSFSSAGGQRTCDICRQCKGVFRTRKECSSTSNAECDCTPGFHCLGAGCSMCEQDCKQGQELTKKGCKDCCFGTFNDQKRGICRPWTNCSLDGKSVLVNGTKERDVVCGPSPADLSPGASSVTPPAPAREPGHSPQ

| Binder | Kd [1] [nM] | Kd [2] [nM] | EC50 (nM) (crosslinked), mIL-2 release, DO11.10.cCD137 with HEK.cyPD-L1 [3] | Emax (pg/ml) (crosslinked), mIL-2 release, DO11.10.cCD137 with HEK.cyPD-L1 [3] [pg/mL] | Kd [4] [nM] | Kd [5] [nM] | EC50 (nM), IFN-γ release, human MLR [6] [nM] | Emax (pg/ml), IFN-γ release, human MLR [6] [pg/mL] | EC50 (nM), hIL-2 release, CD8+ T cells, donor 171115A, HEK.hPD-L1 XL [7] [nM] | EC50 (nM), hIL-2 release, CD8+ T cells, donor 171115A, MDA-MB-231 XL [7] [nM] | EC50 (nM), hIL-2 release, CD8+ T cells, donor 171115B, HEK.hPD-L1 XL [7] [nM] | EC50 (nM), hIL-2 release, CD8+ T cells, donor 171115B, MDA-MB-231 XL [7] [nM] |
| --- | --- | --- | --- | --- | --- | --- | --- | --- | --- | --- | --- | --- |
| FS22-172-003-AA/E05v2 (bispecific antibody, human IgG1, kappa, L234A L235A) heavy: EVQLVQSGAEVKRPGASVKVSCKASGYTFTSYGISWVRQAPGQGLEWMGWISAYSGGTNYAQKLQGRVTMTTDTSTSTAYMELRSLRSDDTAVYYCARDLFPTIFGVSYYYYWGQGTLVTVSSASTKGPSVFPLAPSSKSTSGGTAALGCLVKDYFPEPVTVSWNSGALTSGVHTFPAVLQSSGLYSLSSVVTVPSSSLGTQTYICNVNHKPSNTKVDKKVEPKSCDKTHTCPPCPAPEAAGGPSVFLFPPKPKDTLMISRTPEVTCVVVDVSHEDPEVKFNWYVDGVEVHNAKTKPREEQYNSTYRVVSVLTVLHQDWLNGKEYKCKVSNKALPAPIEKTISKAKGQPREPQVYTLPPSRDELPYIIPPYNQVSLTCLVKGFYPSDIAVEWESNGQPENNYKTTPPVLDSDGSFFLYSKLTVGADRWLEGNVFSCSVMHEALHNHYTQKSLSLSPG light: DIQMTQSPSTLSASVGDRVTITCRASQSISGRLAWYQQKPGKAPNLLIYEASNLESGVPSRFSGSGSGTEFTLTISSLQPEDFATYYCQQSYSTPRVTFGQGTKVEIKRTVAAPSVFIFPPSDEQLKSGTASVVCLLNNFYPREAKVQWKVDNALQSGNSQESVTEQDSKDSTYSLSSTLTLSKADYEKHKVYACEVTHQGLSSPVTKSFNRGEC | 0.5 | 0.59 | 0.08 | 10500 | 1 | 1.5 | 0.03 | 2650 | 0.27 | 0.02 | 0.19 | 0.02 |
| FS22-172-003-AA/G12v2 (bispecific antibody, human IgG1, kappa, L234A L235A) heavy: EVQLVQSGAEVKRPGASVKVSCKASGYTFTSYGISWVRQAPGQGLEWMGWISAYSGGTNYAQKLQGRVTMTTDTSTSTAYMELRSLRSDDTAVYYCARDLFPTIFGVSYYYYWGQGTLVTVSSASTKGPSVFPLAPSSKSTSGGTAALGCLVKDYFPEPVTVSWNSGALTSGVHTFPAVLQSSGLYSLSSVVTVPSSSLGTQTYICNVNHKPSNTKVDKKVEPKSCDKTHTCPPCPAPEAAGGPSVFLFPPKPKDTLMISRTPEVTCVVVDVSHEDPEVKFNWYVDGVEVHNAKTKPREEQYNSTYRVVSVLTVLHQDWLNGKEYKCKVSNKALPAPIEKTISKAKGQPREPQVYTLPPSRDELPYIIPPYNQVSLTCLVKGFYPSDIAVEWESNGQPENNYKTTPPVLDSDGSFFLYSKLTVGADRWLEGNVFSCSVMHEALHNHYTQKSLSLSPG light: DIQMTQSPSTLSASVGDRVTITCRASQSISGRLAWYQQKPGKAPNLLIYEASNLESGVPSRFSGSGSGTEFTLTISSLQPEDFATYYCQQSYSWPRTFGQGTKVEIKRTVAAPSVFIFPPSDEQLKSGTASVVCLLNNFYPREAKVQWKVDNALQSGNSQESVTEQDSKDSTYSLSSTLTLSKADYEKHKVYACEVTHQGLSSPVTKSFNRGEC | 0.49 | 0.53 | 0.06 | 11200 | 1.8 | 2.2 |  |  | 0.21 | 0.02 | 0.22 | 0.01 |
| FS22-053-008-AA/E05v2 (bispecific antibody, human IgG1, kappa, L234A L235A) heavy: EVQLVQSGAEVKRPGASVKVSCKASGYTFTSYGISWVRQAPGQGLEWMGWISAYSGGTNYAQKLQGRVTMTTDTSTSTAYMELRSLRSDDTAVYYCARDLFPTIFGVSYYYYWGQGTLVTVSSASTKGPSVFPLAPSSKSTSGGTAALGCLVKDYFPEPVTVSWNSGALTSGVHTFPAVLQSSGLYSLSSVVTVPSSSLGTQTYICNVNHKPSNTKVDKKVEPKSCDKTHTCPPCPAPEAAGGPSVFLFPPKPKDTLMISRTPEVTCVVVDVSHEDPEVKFNWYVDGVEVHNAKTKPREEQYNSTYRVVSVLTVLHQDWLNGKEYKCKVSNKALPAPIEKTISKAKGQPREPQVYTLPPSRDELNPPYLFSNQVSLTCLVKGFYPSDIAVEWESNGQPENNYKTTPPVLDSDGSFFLYSKLTVDYWRWLEGNVFSCSVMHEALHNHYTQKSLSLSPG light: DIQMTQSPSTLSASVGDRVTITCRASQSISGRLAWYQQKPGKAPNLLIYEASNLESGVPSRFSGSGSGTEFTLTISSLQPEDFATYYCQQSYSTPRVTFGQGTKVEIKRTVAAPSVFIFPPSDEQLKSGTASVVCLLNNFYPREAKVQWKVDNALQSGNSQESVTEQDSKDSTYSLSSTLTLSKADYEKHKVYACEVTHQGLSSPVTKSFNRGEC | 0.47 | 0.58 | 0.06 | 8060 | 1.1 | 2.8 | 0.02 | 2800 | 0.16 | 0.01 | 0.11 | 0.02 |

From patent publication US20250346679A1 (INVOX PHARMA, published 2025)
